From patent US20190376122, “SINGLE-STRAND BINDING PROTEIN” (Universitetet I Tromsø - Norges Arktiske Universitet, published 2019)

How the values were obtained:
[1] = biological target: E. coli SSB (Escherichia coli, UniProt P0AGE0 P0AGE0:2-178); assay: beacon fluorescence, 0.25 uM tetramer; binding decreases significantly with increasing concentration of all tested salts; 25 C; conditions: chain copies: tetramer (stated); label: dT-DABCYL and dT-FAM internal; partial hairpin with short 8 bp stem and 24 nt single-stranded loop
Method: (§1) Wild-type S.ruber SSB and the D17K D71K mutant were tested for their ability to bind ssDNA in reaction buffer supplemented with NaCl, KCl, MgCl₂ and CaCl₂. E. coli SSB was used as a well characterized, reference protein.
(§2) Reactions contained 0.125 μM of molecular beacon and 0.25 μM of E. coli SSB tetramer (single binding unit), 4 μM of wt SrSSB and 2 μM of D17K D71K. Reaction mixtures were set up in triplicates in 50 μl of reaction buffer MB (10 mM Tris-HCl pH 7, 10 mM NaCl) containing the fluorescent probe and supplemented with an indicated concentration of NaCl, KCl or MgCl₂ in 96-well plate (Corning). The binding reaction was initiated by addition of the indicated SSB protein, next reactions were incubated at 25° C. for 15′ and the fluorescence was measured with excitation at 495 nm and emission at 520 nm on the Gemini plate reader (Molecular Devices). All graphs were normalized to 100% of initial response, measured in fluorescence units.

[2] = biological target: T1, SrSSB D17K D71K mutant (Salinibacter ruber); assay: beacon dehybridization fluorescence, 2 uM protein; level similar to wt at half the concentration; maintained in high NaCl, KCl, MgCl2; 25 C; conditions: chain copies: octamer (stated); label: dT-DABCYL and dT-FAM internal; partial hairpin with short 8 bp stem and 24 nt single-stranded loop
T1 chain: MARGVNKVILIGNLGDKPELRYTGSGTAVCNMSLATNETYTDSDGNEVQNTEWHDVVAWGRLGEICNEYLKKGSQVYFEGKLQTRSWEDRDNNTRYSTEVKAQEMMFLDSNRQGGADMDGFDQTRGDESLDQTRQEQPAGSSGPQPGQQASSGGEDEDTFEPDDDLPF
Method: as §1, §2

[3] = biological target: T2, wild-type Salinibacter ruber SSB (SrSSB) (Salinibacter ruber DSM 13855); assay: beacon dehybridization fluorescence, 4 uM protein; binding maintained with NaCl to 1 M, KCl to 1 M, MgCl2 to 250 mM; 25 C; conditions: chain copies: octamer/dodecamer mixture at 0.15 M NaCl; mostly octamer at 2 M NaCl (stated); label: dT-DABCYL and dT-FAM internal; partial hairpin with short 8 bp stem and 24 nt single-stranded loop
T2 chain: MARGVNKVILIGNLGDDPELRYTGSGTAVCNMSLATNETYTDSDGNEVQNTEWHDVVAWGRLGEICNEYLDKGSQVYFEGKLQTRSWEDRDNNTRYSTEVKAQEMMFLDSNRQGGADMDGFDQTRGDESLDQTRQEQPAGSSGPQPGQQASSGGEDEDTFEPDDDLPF
Method: as §1, §2

[4] = biological target: T2, wild-type Salinibacter ruber SSB (SrSSB); assay: SPR; 10 mM Tris-HCl pH 7, 10 mM NaCl; Chi2 0.529; conditions: chain copies: octamer/dodecamer mixture at 0.15 M NaCl; mostly octamer at 2 M NaCl (stated); label: 5'-biotin
Source text: (§3) Higher binding affinity of the D17K D71K mutant was also confirmed by probing the protein-ssDNA interaction strength directly with the use of Surface Plasmon Resonance on a T200 instrument (BIACORE). This biosensor-based technique enables real-time measurement of binding parameters that enables calculation of equilibrium dissociation constant (KD) of different complexes, including nucleoprotein complexes. To ensure that the measurement is not biased by nucleotide sequence, a randomly generated, 150 nucleotide, 5′-biotynylated ssDNA oligonucleotide was used (Table 2, SEQ ID NO:11). Oligonucleotides were attached to the surface of the SA S-type chip (BIACORE) via biotin-streptavidin interaction. Next, both proteins were run in dilutions: 10 nM, 20 nM, 40 nM, 100 nM, 150 nM, 200 nM, 300 nM over the chip surface in MB buffer (10 mM Tris-HCl pH 7, 10 mM NaCl). The binding event was detected by mass change on the chip surface, which enabled real time measurements of the kinetic parameters of protein-ssDNA interaction.

[5] = biological target: T1, SrSSB D17K D71K mutant; assay: SPR; 10 mM Tris-HCl pH 7, 10 mM NaCl; Chi2 0.624; conditions: chain copies: octamer (stated); label: 5'-biotin
Source text: as §3

[6] = biological target: T2, wild-type Salinibacter ruber SSB (SrSSB); assay: structure; PDB 5ODN; d(T)8 soaked; one ssDNA fragment per OB-fold; 0.25 M MgCl2, 1 M ammonium sulphate, pH 8.0; conditions: chain copies: octamer/dodecamer mixture at 0.15 M NaCl; mostly octamer at 2 M NaCl (stated)
Method: Small, prism-shaped crystals of wild-type S. ruber SSB were obtained in sitting drops consisting of 1 μl of protein solution (5 mg/ml) containing 20 μM of d(T)₇₅ oligonucleotide and 1 μl of reservoir solution (27% w/v PEG 3350, 100 mM Tris-HCl pH 8.0, 0.25M MgCl₂, 1 M ammonium sulphate). Soaking experiments were performed by adding d(T)₈ oligonucleotide to the drops containing formed crystals, to a final concentration of 0.25 μM.

Sequence of E. coli SSB (P0AGE0 2-178, one chain of several): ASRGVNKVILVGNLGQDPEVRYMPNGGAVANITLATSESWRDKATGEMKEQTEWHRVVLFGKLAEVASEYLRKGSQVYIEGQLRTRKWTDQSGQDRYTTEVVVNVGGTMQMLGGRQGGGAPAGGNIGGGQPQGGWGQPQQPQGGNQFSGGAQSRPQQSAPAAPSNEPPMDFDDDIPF

B1: MB molecular beacon (ssDNA)
DNA: GGCCCGTAGGAGGAAAGGACATCTTCTAGCATACGGGCCGTCAAGTTCATGGCCAGTCAAGTCGTCAGAAATTTCGCACCAC
binding result [1]: binds
binding result [2]: binds
binding result [3]: binds

B2: SPR 150nt oligonucleotide (ssDNA)
DNA: AAAGGGTATTGACGGACCAGATGTAGCGTGGCAGAAAAGGGTATTGACGGACCAGATGTAGCGTGGCAGAGACTGAAAGGGTATTGACGGACCAGATGTAGCGTGGCAGAAAAGGGTATTGACGGACCAGATGTAGCGTGGCAGAGACTG
Kd [4]: 34.3 nM
Kd [5]: 19.1 nM

TTTTTTTT (ssDNA) [d(T)8]
binding result [6]: binds
